Experimental data taken from the supplement of paper PMC10201428.
± gives the standard deviation of the averaged measurements.

B1: library; a variant is named by its letters at N, in order (parent)
chain: AATGTTGTTGATGCAACCATAAAGTGATATTTAATAATTATTTATAATCAGCAACTTAACCACAAAACAACCATATATTGATATNTCACAAAACAACCATAANTTGATATTTTTGTGAATCGAGTATTTCAGCAAAACTACTGCAGTAAGAA

Legend:
[1] = variants of: B1; assay: relative integration efficiency (T-LR orientation) vs wild-type transposon end (log2 (normalized fold change)); transposon end mutated: left end; higher = more efficient transposition; conditions: with VchCAST RNA-guided transposition machinery (E. coli BL21(DE3) host, lacZ target)
Protocol: (§1)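 Pooled, barcoded VchCAST (Tn6677) mini-transposon donor libraries; each variable transposon-end sequence sits in a fixed pDonor mini-transposon context (10-bp barcode and cargo not included). Left- or right-end libraries were co-transformed with pEffector (TniQ-Cascade, TnsABC, lacZ crRNA, T7, 0.1 mM IPTG) into E. coli BL21(DE3) and grown 18 h at 37 C. T-LR and T-RL junction amplicons were sequenced; output/input barcode fold change was normalised to the mean of four wild-type barcodes and log2-transformed. Two biological replicates; zero-count/undetected variants carry floor values (-10 / -15), censored here. Barcode uncoupling by PCR recombination adds noise.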

[2] = variants of: B1; assay: relative integration efficiency (T-RL orientation) vs wild-type transposon end (log2 (normalized fold change)); transposon end mutated: left end; higher = more efficient transposition; conditions: with VchCAST RNA-guided transposition machinery (E. coli BL21(DE3) host, lacZ target)
Protocol: as §1

Row | Variant | relative integration efficiency (log2) [1] | relative integration efficiency (log2) [2]
1 | CG A1G | 0.115 ± 0.63 | 0.133 ± 0.095
2 | TA A23G G24T A33T T76A A77G C87T T104A T110A T113A | 0.0613 ± 0.2 | -0.917 ± 0.47
3 | TG A16C G24T T30A T76A T78A T84A C87A | 0.0694 ± 0.32 | 0.372 ± 0.36
4 | TA A22T G24T T31C A33C T76A A77G C87T A102T T111C T113C | -0.361 ± 0.78 | -0.688 ± 0.55
5 | TA T76A T78A T84A C87A T104A T110A T113A | 0.357 ± 0.48 | 0.0146 ± 0.17
6 | CG A16C C17A C18A A19C | -3.65 ± 3.1 | -2.24 ± 0.77
7 | TA A22T G24T T31C A33C A70C T76A T86G T104A T110A T113A | -0.292 ± 0.24 | -0.768 ± 0.47
8 | TA A22T G24T T31C A33C A70C T76A T84A C87A A96C T112G T113C | -0.665 ± 0.33 | -0.334 ± 0.36
9 | CG A1T A2T G4T T5G | -0.165 ± 0.16 | -0.0703 ± 0.2
10 | CG A1C A2G T3C G4C T5G | -0.385 ± 0.32 | -0.219 ± 0.027
11 | CA A22T G24T T31C A33C T104G T113A | -0.697 ± 0.046 | -0.629 ± 0.23
12 | TG A16C G24T T32G A33C A70C T76A T84A C87A | -0.64 ± 0.74 | -0.378 ± 0.44
13 | CC A23T A77T | 0.131 ± 0.37 | -0.225 ± 0.1
14 | TA A16C G24T T32G A33C T76A A77G C87T T104G T113A | -0.746 ± 0.94 | -1.52 ± 0.61
15 | TG A16C G24T T32G A33C T76A A77G C87T | -0.184 ± 0.15 | -0.603 ± 0.47
16 | TA A22T G24T T31C A33C A70C T76A T86G A96C T110A T113A | 0.00776 ± 0.18 | -0.657 ± 0.25
17 | TA G24A T30A T76A A77G C87T A96C T110A T113A | 0.553 ± 0.26 | 0.0249 ± 0.25
18 | TA A22T G24T T31C A33C T76A A77G C87T A96C T112G T113C | -0.0329 ± 0.84 | -0.66 ± 0.42
19 | CA A22T G24T T31C A33C A102T T111C T113C | -0.528 ± 0.39 | -0.843 ± 0.57
20 | TA G24A T30A A70C T76A T86G T104A T110A T113A | -0.21311 ± 4.7e-05 | -0.36 ± 0.27

Row | Variant | relative integration efficiency (log2) [1] | relative integration efficiency (log2) [2]
21 | TA A23G G24T A33T A70C T76A T86G T104G T113A | 0.529 ± 0.03 | -0.0666 ± 0.38
22 | TA A22T G24T T31C A33C A70C T76A T84A C87A A96C T110A T113A | -0.841 ± 0.82 | -0.504 ± 0.43
23 | CA A16C G24T T30A T104G T113A | -0.245 ± 0.15 | -0.185 ± 0.23
24 | TA A16C G24T T32G A33C A70C T76A T86G A102T T111C T113C | -1.2 ± 0.65 | -0.838 ± 0.29
25 | TA A22T G24T T31C A33C A70C T76A T86G T104G T113A | -0.49 ± 0.73 | -0.861 ± 0.53
26 | CA A23G G24T A33T A102T T111C T113C | -0.354 ± 0.18 | -0.967 ± 0.39
27 | CA A22T G24T T31C A33C A96C T112G T113C | -0.822 ± 0.81 | -0.76 ± 0.32
28 | TA A16C G24T T30A T76A T78G C87A T104G T113A | -0.0106 ± 0.39 | -0.0789 ± 0.27
29 | TA A16C G24T T32G A33C T76A A77G C87T A96C T110A T113A | -1.08 ± 1.6 | -0.54 ± 0.44
30 | TG A16C G24T T32G A33C T76A T78A T84A C87A | -0.658 ± 0.78 | -0.572 ± 0.34
31 | TA T76A T78A T84A C87A A96C T110A T113A | 0.0631 ± 0.19 | 0.318 ± 0.081
32 | CA A96C T112G T113C | -0.564 ± 0.17 | -0.326 ± 0.1
33 | TA A70C T76A T84A C87A A96C T112G T113C | -0.389 ± 0.085 | -0.122 ± 0.12
34 | CC T104A | -0.472 ± 0.64 | -0.478 ± 0.0072
35 | TA A16C G24T T32G A33C A70C T76A T84A C87A A96C T112G T113C | -0.915 ± 1.2 | -0.234 ± 0.35
36 | TA A23G G24T A33T A70C T76A T84A C87A A96C T112G T113C | 0.304 ± 0.89 | 0.137 ± 0.19
37 | CA T104A T110A T113A | -0.182 ± 0.39 | -0.656 ± 0.2
38 | TA A23G G24T A33T T76A T78G C87A A96C T112G T113C | 0.535 ± 0.16 | 0.327 ± 0.1
39 | TA G24A T30A T76A T78G C87A A96C T110A T113A | 0.291 ± 0.89 | 0.0775 ± 0.15
40 | TA G24A T30A T76A A77G C87T T104A T110A T113A | 0.503 ± 0.28 | -0.582 ± 0.57

Row | Variant | relative integration efficiency (log2) [1] | relative integration efficiency (log2) [2]
41 | TA A16C G24T T32G A33C T76A T78A T84A C87A A96C T110A T113A | -0.572 ± 0.61 | -0.189 ± 0.31
42 | TA G24A T30A T76A T78A T84A C87A A96C T110A T113A | 0.0142 ± 0.25 | 0.0999 ± 0.18
43 | TA A22T G24T T31C A33C A70C T76A T84A C87A T104G T113A | -0.566 ± 0.36 | -0.81 ± 0.5
44 | TA G24A T30A T76A T78G C87A A96C T112G T113C | 0.0921 ± 0.22 | 0.299 ± 0.056
45 | TA A16C G24T T30A T76A T78G C87A A96C T110A T113A | 0.235 ± 1.1 | 0.17 ± 0.13
46 | CG A2C | 0.61035 ± 0.00046 | -0.0562 ± 0.037
47 | CG A2G | 0.28 ± 0.065 | 0.239 ± 0.039
48 | CG A2T | 0.355 ± 0.34 | -0.141 ± 0.054
49 | TA A16C G24T T30A T76A T78A T84A C87A T104G T113A | -0.559 ± 0.18 | -0.412 ± 0.26
50 | CG A11C T12G G13T C14A | -1.55 ± 0.089 | -0.699 ± 0.47
51 | TG A16C G24T T30A A70C T76A T86G | 0.235 ± 0.55 | 0.0267 ± 0.24
52 | CC A22T A23T G24C T25A T76A A77T T78A T79A A102T T104A T105A | -2.83 ± 0.82 | -3 ± 1.3
53 | CG A15T A16T C17G C18G | -0.912 ± 0.078 | -0.824 ± 0.58
54 | TA A70C T76A T86G T104A T110A T113A | 0.0387 ± 0.67 | -0.344 ± 0.23
55 | CC A22T A23T G24C T76A A77T T78A A102T T104A | -0.143 ± 0.92 | -0.196 ± 0.36
56 | TA A16C G24T T32G A33C T76A T78A T84A C87A T104A T110A T113A | -0.781 ± 0.91 | -0.706 ± 0.26
57 | TA A23G G24T A33T A70C T76A T86G A96C T110A T113A | 0.0515 ± 0.56 | 0.0613 ± 0.44
58 | TA G24A T30A A70C T76A T84A C87A A96C T112G T113C | 0.302 ± 0.58 | 0.326 ± 0.17
